The record followed here is patent publication US20170002055A1, “Novel peptides and combination of peptides for use in immunotherapy against ovarian cancer and other cancers” (immatics biotechnologies GmbH, priority 2015, published 2017).

This test has as its target HLA-A*02:01 (Homo sapiens, UniProt P04439, D140Y/D185E/D98H/E176V/E277Q/G131W/G231S/I119V/I121R/I166T/I218V/L300P/L318F/N151K/N90K/P208A/P217A/Q86G/Q94H/R138H/R169H/T345S). Nature of the test: MHC binding assay (UV-ligand exchange, β2m ELISA, peptide exchange yield). As to conditions: MHC class I binding score; binding to HLA-A*02:01 ranged by peptide exchange yield (UV-ligand exchange, β2m ELISA). From the text:
Candidate peptides for T cell based therapies according to the present invention were further tested for their MHC binding capacity (affinity). The individual peptide-MHC complexes were produced by UV-ligand exchange, where a UV-sensitive peptide is cleaved upon UV-irradiation, and exchanged with the peptide of interest as analyzed. Only peptide candidates that can effectively bind and stabilize the peptide-receptive MHC molecules prevent dissociation of the MHC complexes. To determine the yield of the exchange reaction, an ELISA was performed based on the detection of the light chain (β2m) of stabilized MHC complexes. The assay was performed as generally described in Rodenko et al. (Rodenko et al., 2006).
96 well MAXISorp plates (NUNC) were coated over night with 2 ug/ml streptavidin in PBS at room temperature, washed 4× and blocked for 1h at 37° C. in 2% BSA containing blocking buffer. […] Peptide-MHC monomers of the UV-exchange reaction were diluted 100 fold in blocking buffer. Samples were incubated for 1h at 37° C., washed four times, incubated with 2 ug/ml HRP conjugated anti-β2m for 1h at 37° C., washed again and detected with TMB solution that is stopped with […]. Absorption was measured at 450 nm. Candidate peptides that show a high exchange yield (preferably higher than 50%, most preferred higher than 75%) are generally preferred for a generation and production of antibodies or fragments thereof, and/or T cell receptors or fragments thereof, as they show sufficient avidity to the MHC molecules and prevent dissociation of the MHC complexes.
Consider “87 (ALPEAPAPLLPHIT; listed as Homo sapiens) [compound 87]”, for which the Peptide exchange entry is ““++” (≧20% = ++)”.
Take “88 (FLLVGDLMAV; listed as Homo sapiens) [compound 88]”: the Peptide exchange entry is recorded as ““+++” (≧50 = +++)”.
Regarding “89 (YILPTETIYV; listed as Homo sapiens) [compound 89]”, the Peptide exchange entry is on record as ““++++” (≧75% = ++++)”.
Take “90 (TLLQIIETV; listed as Homo sapiens) [compound 90]”: the Peptide exchange entry was ““+++” (≧50 = +++)”.
To “91 (IMQDFPAEIFL; listed as Homo sapiens) [compound 91]” belongs ““++++” (≧75% = ++++)”; to “92 (YLIPFTGIVGL; listed as Homo sapiens) [compound 92]”, ““++” (≧20% = ++)”.
“93 (LLQAIKLYL; listed as Homo sapiens) [compound 93]”: the Peptide exchange entry is ““++” (≧20% = ++)”.
Turning to “94 (YLIDIKTIAI; listed as Homo sapiens) [compound 94]”, the Peptide exchange entry was ““++” (≧20% = ++)”.
For “95 (SVIPQIQKV; listed as Homo sapiens) [compound 95]”, the Peptide exchange entry is on record as ““+++” (≧50 = +++)”.
To “96 (YIFTDNPAAV; listed as Homo sapiens) [compound 96]” belongs ““+++” (≧50 = +++)”.
For the substance “97 (SLINGSFLV; listed as Homo sapiens) [compound 97]”, the Peptide exchange entry was ““+++” (≧50 = +++)”.
“98 (LIIDQADIYL; listed as Homo sapiens) [compound 98]”: the Peptide exchange result is on record as ““+++” (≧50 = +++)”.
With “99 (ALVSKGLATV; listed as Homo sapiens) [compound 99]”, the Peptide exchange result was ““++” (≧20% = ++)”.
To “100 (YLLSTNAQL; listed as Homo sapiens) [compound 100]” belongs ““++++” (≧75% = ++++)”.
Then “101 (ILVGGGALATV; listed as Homo sapiens) [compound 101]”, with ““+++” (≧50 = +++)”; and “102 (YLFESEGLVL; listed as Homo sapiens) [compound 102]”, with ““+++” (≧50 = +++)”; and “103 (TLAEEVVAL; listed as Homo sapiens) [compound 103]”, with ““+++” (≧50 = +++)”.
To “104 (STMEQNFLL; listed as Homo sapiens) [compound 104]” belongs ““++++” (≧75% = ++++)”.
Take “106 (LLYDAVHIVSV; listed as Homo sapiens) [compound 106]”: the Peptide exchange result was ““+++” (≧50 = +++)”.
Take “107 (FLQPVDDTQHL; listed as Homo sapiens) [compound 107]”: the Peptide exchange result is recorded as ““+++” (≧50 = +++)”.
To “109 (IILSILEQA; listed as Homo sapiens) [compound 109]” belongs ““++++” (≧75% = ++++)”; to “110 (FLSQVDFEL; listed as Homo sapiens) [compound 110]”, ““+++” (≧50 = +++)”.
Regarding “111 (YVWGFYPAEV; listed as Homo sapiens) [compound 111]”, the Peptide exchange entry is recorded as ““+++” (≧50 = +++)”.
To “114 (SLVGEPILQNV; listed as Homo sapiens) [compound 114]” belongs ““++” (≧20% = ++)”; to “115 (AIAGAGILYGV; listed as Homo sapiens) [compound 115]”, ““++” (≧20% = ++)”; to “116 (YHIDEEVGF; listed as Homo sapiens) [compound 116]”, ““+” (≧10% = +)”.
To “117 (ILPDGEDFLAV; listed as Homo sapiens) [compound 117]” belongs ““+++” (≧50 = +++)”; to “119 (FLYIGDIVSL; listed as Homo sapiens) [compound 119]”, ““++++” (≧75% = ++++)”.
Take “120 (ALLGIPLTLV; listed as Homo sapiens) [compound 120]”: the Peptide exchange result is on record as ““+++” (≧50 = +++)”.
For the substance “121 (GVVDPRAISVL; listed as Homo sapiens) [compound 121]”, the Peptide exchange result is ““++” (≧20% = ++)”.
To “122 (FLLAEDDIYL; listed as Homo sapiens) [compound 122]” belongs ““+++” (≧50 = +++)”; to “123 (NLWDLTDASVV; listed as Homo sapiens) [compound 123]”, ““+++” (≧50 = +++)”.
Take “124 (ALYETELADA; listed as Homo sapiens) [compound 124]”: the Peptide exchange entry was ““++” (≧20% = ++)”.
To “125 (VQIHQVAQV; listed as Homo sapiens) [compound 125]” belongs ““+++” (≧50 = +++)”; to “126 (VLAYFLPEA; listed as Homo sapiens) [compound 126]”, ““++++” (≧75% = ++++)”; to “127 (KIGDEPPKV; listed as Homo sapiens) [compound 127]”, ““++” (≧20% = ++)”.
As for “128 (YLFDDPLSAV; listed as Homo sapiens) [compound 128]”, the Peptide exchange entry is recorded as ““++” (≧20% = ++)”.
To “129 (GLLDGGVDILL; listed as Homo sapiens) [compound 129]” belongs ““+++” (≧50 = +++)”; to “130 (FLWNGEDSALL; listed as Homo sapiens) [compound 130]”, ““+++” (≧50 = +++)”; to “131 (FVPPVTVFPSL; listed as Homo sapiens) [compound 131]”, ““++” (≧20% = ++)”.
Then “132 (LLVEQPPLAGV; listed as Homo sapiens) [compound 132]”, with ““+++” (≧50 = +++)”; and “133 (KVLSNIHTV; listed as Homo sapiens) [compound 133]”, with ““++” (≧20% = ++)”.
Turning to “134 (YLQELIFSV; listed as Homo sapiens) [compound 134]”, the Peptide exchange entry is given as ““+++” (≧50 = +++)”.
In the case of “135 (ALSEVDFQL; listed as Homo sapiens) [compound 135]”, the Peptide exchange result is ““+++” (≧50 = +++)”.
Then “136 (YLADPSNLFVV; listed as Homo sapiens) [compound 136]”, with ““+++” (≧50 = +++)”; and “137 (TLVLTLPTV; listed as Homo sapiens) [compound 137]”, with ““++++” (≧75% = ++++)”; and “138 (YQYPRAILSV; listed as Homo sapiens) [compound 138]”, with ““+++” (≧50 = +++)”.
To “139 (SVMEVNSGIYRV; listed as Homo sapiens) [compound 139]” belongs ““+++” (≧50 = +++)”; to “140 (YMDAPKAAL; listed as Homo sapiens) [compound 140]”, ““++” (≧20% = ++)”.
With “142 (FLFATPVFI; listed as Homo sapiens) [compound 142]”, the Peptide exchange entry is recorded as ““+++” (≧50 = +++)”.
As to “144 (YIMEPSIFNTL; listed as Homo sapiens) [compound 144]”, the Peptide exchange entry is on record as ““+++” (≧50 = +++)”.
With “145 (FLATSGTLAGI; listed as Homo sapiens) [compound 145]”, the Peptide exchange result is given as ““++” (≧20% = ++)”.
Then “146 (SLATAGDGLIEL; listed as Homo sapiens) [compound 146]”, with ““++” (≧20% = ++)”; and “147 (SLLEAVSFL; listed as Homo sapiens) [compound 147]”, with ““+++” (≧50 = +++)”.
To “148 (ALNPEIVSV; listed as Homo sapiens) [compound 148]” belongs ““++” (≧20% = ++)”; to “149 (NLLELFVQL; listed as Homo sapiens) [compound 149]”, ““+++” (≧50 = +++)”; to “151 (KILQQLVTL; listed as Homo sapiens) [compound 151]”, ““+++” (≧50 = +++)”.
As to “153 (FLIANVLYL; listed as Homo sapiens) [compound 153]”, the Peptide exchange result was ““+” (≧10% = +)”.
To “154 (ALDDGTPAL; listed as Homo sapiens) [compound 154]” belongs ““++” (≧20% = ++)”; to “155 (RVANLHFPSV; listed as Homo sapiens) [compound 155]”, ““+++” (≧50 = +++)”.
Consider “158 (KLFDVDEDGYI; listed as Homo sapiens) [compound 158]”, for which the Peptide exchange result is on record as ““+++” (≧50 = +++)”.
Turning to “159 (GLVGNPLPSV; listed as Homo sapiens) [compound 159]”, the Peptide exchange result is recorded as ““++++” (≧75% = ++++)”.
Take “160 (FLFDEEIEQI; listed as Homo sapiens) [compound 160]”: the Peptide exchange entry is reported as ““+++” (≧50 = +++)”.
With “161 (ALLEGVNTV; listed as Homo sapiens) [compound 161]”, the Peptide exchange entry is ““+++” (≧50 = +++)”.
To “162 (YQQAQVPSV; listed as Homo sapiens) [compound 162]” belongs ““+++” (≧50 = +++)”.
